The text below walks through data of patent publication US7544477B2, “Circularly permutated, interaction-activated proteins” (KaloBios, Inc., priority 2000, dated 2009).

Assay [1] concerns the target hetero-dimerizing leucine zipper helix from the c-jun subunit of the AP-1 transcription factor. The assay can be described thus: cell-based or functional assay.
The subject of assay [2] is TG1 cells. The assay can be described thus: Activation of TEM-1 β-lactamase fragment complementation by disulfide-assisted fos-jun interaction (plating on ampicillin). The format is cell-based, E. coli. The settings on record: without a stabilizing peptide; same expression conditions.
Protocol: Cysteines were added to the sequences of α197 and ω198, between the break-point termini and the linkers leading to the heterologous interactors.
Disulfide formation was made to be more dependent on the heterologous interaction by two modifications. First, disulfide formation can be inhibited by inclusion of a reducing agent in the growth medium. […] Secondly, the cysteines were shifted by one residue each away form the break-point and into the β-lactamase sequence, so that they became separated in the native fold by an additional ˜8 Å.

Chain of hetero-dimerizing leucine zipper helix from the c-jun subunit of the AP-1 transcription factor (P05412 280-308): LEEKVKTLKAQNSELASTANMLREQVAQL

In assay [1], “hetero-dimerizing leucine zipper helix from the c-fos subunit of the AP-1 transcription factor (peptide)” came in with a Hi Amp (max ampicillin with >10% plating), break-point A227/G228, +Fos/Jun of 50 µg/mL; a Hi Amp (max ampicillin with >10% plating), break-point A227/G228, +S-S, +Fos/Jun of 200 µg/mL; a Hi Amp (max ampicillin with >10% plating), break-point E63/E64, +S-S, +Fos/Jun of 25 µg/mL; a Hi Amp (max ampicillin with >10% plating), break-point E197/L198, +Fos/Jun of 50 µg/mL. In assay [1], the Hi Amp (max ampicillin with >10% plating), break-point E197/L198, +S-S, +Fos/Jun is 100 µg/mL; the Hi Amp (max ampicillin with >10% plating), break-point G253/K254, +Fos/Jun was 50 µg/mL; the Hi Amp (max ampicillin with >10% plating), break-point G253/K254, +S-S, +Fos/Jun was 400 µg/mL; the Hi Amp (max ampicillin with >10% plating), break-point K215/V216, +Fos/Jun came to 25 µg/mL. In assay [1], this molecule registered a Hi Amp (max ampicillin with >10% plating), break-point K215/V216, +S-S, +Fos/Jun of 100 µg/mL; a Hi Amp (max ampicillin with >10% plating), break-point N52/S53, +S-S, +Fos/Jun of 25 µg/mL; a Hi Amp (max ampicillin with >10% plating), break-point P174/N175, +Fos/Jun of 50 µg/mL; a Hi Amp (max ampicillin with >10% plating), break-point P174/N175, +S-S, +Fos/Jun of 200 µg/mL. Besides, in assay [1], the Hi Amp (max ampicillin with >10% plating), break-point Q99/N100, +S-S, +Fos/Jun turned out to be 25 µg/mL; the activation index, break-point P174/N175, fos-jun with disulfide was 1e+07; the activation index, α197/ω198 with break-point cysteines, 10 mM DTT, 100 µg/ml ampicillin is over 1000 fold; the activation index, α197/ω198 with cysteines shifted by one residue, 50 µg/ml ampicillin is over 100000. In addition, in assay [1], the ampicillin concentration of recovery, α197/ω198 with break-point tri-peptides, strain DH5α was 800 µg/mL; the ampicillin concentration of recovery, α197/ω198 with break-point tri-peptides, strain TG1 worked out at 400 µg/mL; the plating efficiency on 25 µg/ml ampicillin, wild-type α197-jun + fos-ω198 is 30%; the plating efficiency on 50 µg/ml ampicillin, α197-fos + jun-ω198 alone was determined as 1%. In assay [1], the plating efficiency on 50 µg/ml ampicillin, α197-fos + jun-ω198 with GRE-trxA in trans is 100%; the plating efficiency on 50 µg/ml ampicillin, α197/ω198 with cysteines shifted by one residue came to 10%; the plating efficiency on 100 µg/ml ampicillin, wild-type α197-jun + fos-ω198 (colonies per cell) was under 1e-06; the plating efficiency on 400 µg/ml ampicillin, break-point G253/K254, fos-jun with disulfide was over 25%.

B1: wild-type TEM-1 β-lactamase: intact TEM-1 β-lactamase of E. coli (protein, UniProt P62593 24-286, looked up)
Beta-lactamase TEM: HPETLVKVKDAEDQLGARVGYIELDLNSGKILESFRPEERFPMMSTFKVLLCGAVLSRVDAGQEQLGRRIHYSQNDLVEYSPVTEKHLTDGMTVRELCSAAITMSDNTAANLLLTTIGGPKELTAFLHNMGDHVTRLDRWEPELNEAIPNDERDTTMPAAMATTLRKLLTGELLTLASRQQLIDWMEADKVAGPLLRSALPAGWFIADKSGAGERGSRGIIAALGPDGKPSRIVVIYTTGSQATMDERNRQIAEIGASLIKHW
Consider B1, for which the “Ampicillin concentration on which cells plate” value in assay [2] is at most 1000 µg/mL.
